{"source": "the nanobody polyreactivity screen of Harvey et al. (2022)"}
{"assay": "yeast display, Sf9 membrane polyspecificity reagent, FACS + sequencing; frameworks hold sequencing errors", "procedure,_shortened": "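A synthetic nanobody library was expressed on Saccharomyces cerevisiae BJ5465 by galactose induction for 36–48 hours. The library was stained for 1 hour at 4 °C with 10% biotinylated, detergent-solubilized Sf9 membrane reagent and enriched with streptavidin microbeads before FACS. Low and high (top ~1%) gates were set on anti-HA fluorescence for expression and streptavidin fluorescence for reagent binding, and each polyreactivity label reflects the gate of origin.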"}
{"sequence": "QVQLVESGGGLVQAGGSLRLSCAASGRIFDINAMGWYRQAPGKEWELVAAISRGGSTYYADSVKGRFTISLDNAKNTVYLNMNSLKPEDTAVYYCNIYRYRGSTVFDGYDYWGHGTQVTVSS", "polyreactivity (PSR sort gate)": "high polyreactivity"}
{"sequence": "QVQLVESGGGLVQAGGSLRLSCAASGRIFDIYAMGWYRQAPGKERELVAAITTRGGSTYYADSVKGRFTISRDNAKNNVYLQMNSLKPEDTAVYYCAAAYSEDYRVIFYYWGQGTQVTVSS", "polyreactivity (PSR sort gate)": "low polyreactivity"}
{"sequence": "QVQLVESGGGLVQAGGSLRLSCAASGRIFDIYAMGWYRQAPGKERELVAGITSVGSTNYADSVKGRFTISRDNAKNTVYLQMNSLKPEDTAVYYCAADTSVHSEVDYWGQGTQVTVSS", "polyreactivity (PSR sort gate)": "low polyreactivity"}
{"sequence": "QVQLVESGGGLVQAGGSLRLSCAASGRIFDIYAMGWYRQAPGKERELVAGITSVGSTNYADSVKGRFTISRDNEKNTVYLQMNSLKPEDTAVYYCAAKAYFSTSPYHREHDSWGQGTQVTVSS", "polyreactivity (PSR sort gate)": "low polyreactivity"}
{"sequence": "QVQLVESGGGLVQAGGSLRLSCAASGRIFDIYGMGWYRQAPGKERELLAAITWRGGSTYYADSVKGRFTISRDNAKNTVYLQMKSLNPEDTAVYYCNARKRGARFILGYDYWGQGTQVTVSS", "polyreactivity (PSR sort gate)": "low polyreactivity"}
{"sequence": "QVQLVESGGGLVQAGGSLRLSCAASGRIFDIYTMGWYRQAPGKERELVASITKRGGSTYYADSVKGRFTISRDNAKNTVYLQMKSLKPEDTAVYFCNVAGKQKPYYVTTRLDYWGQGTQVTVSS", "polyreactivity (PSR sort gate)": "high polyreactivity"}
{"sequence": "QVQLVESGGGLVQAGGSLRLSCAASGRIFDLNAMGWYRQAPGKERELVAVISWSGGIKYYADSVKGRFTISRDNAKNTVYLQMNSLKPEDTAVYYCNADTVFDPYYEFDYWGLGTQVTVSS", "polyreactivity (PSR sort gate)": "low polyreactivity"}
{"sequence": "QVQLVESGGGLVQAGGSLRLSCAASGRIFDLYAMGWYRQAPGKERELVAAITWRGGSTYYADSVKGRFTISRDNAKNTVYLQMNSLKPEDTAVYYCAARSYYISPWRFDYWGQGTQVTVSS", "polyreactivity (PSR sort gate)": "high polyreactivity"}
{"sequence": "QVQLVESGGGLVQAGGSLRLSCAASGRIFDPYAMGWYRQAPGKERELVASNSWSGGRTYYADSVKGRFTISRDNAKNTVYLQMNSLKPEDTAVYYCAKVRAYTRLGLTVSMDYWGQGTQVTVSS", "polyreactivity (PSR sort gate)": "high polyreactivity"}
{"sequence": "QVQLVESGGGLVQAGGSLRLSCAASGRIFDQNAMGWYRQAPGKERELVAAISSSGGRTYYADSVKGRFTISRDNAKNTVYLQMNSLKPEDTAVYYCAARYRFQRGGYYYWGQGTQVTVSS", "polyreactivity (PSR sort gate)": "high polyreactivity"}
{"sequence": "QVQLVESGGGLVQAGGSLRLSCAASGRIFDRNAMGWYRPSPGTERELLAAIDDSGGDTSYADSVKGRFTISRDNAKNTVYLQMNSLKPEDTAVYYCNAGYADFVTYPRYYYWGQGTQVTVSS", "polyreactivity (PSR sort gate)": "low polyreactivity"}
{"sequence": "QVQLVESGGGLVQAGGSLRLSCAASGRIFDRNAMGWYRQAPGKERELVAAIDDSGGDTSYADSVKGRFTISRDTAKNTVYLQMNSLKPEDTAVYYCAAKRQYYQTGSQRSYPYDYWGQGTQVTVSS", "polyreactivity (PSR sort gate)": "low polyreactivity"}
{"sequence": "QVQLVESGGGLVQAGGSLRLSCAASGRIFDRNAMGWYRQAPGKERELVAAIRRGGSTNYADSVKGRFTISRDNAKNTVYLQMNSLKPEDTAVYYCNTVYSEYYIAYDYWGQGTQVTVSS", "polyreactivity (PSR sort gate)": "high polyreactivity"}
{"sequence": "QVQLVESGGGLVQAGGSLRLSCAASGRIFDRNAMGWYRQAPGKERELVARIDPGDDTNYADSVKGRFTISRDNAKHTVYLQMHSLKPEDTAVYYCATDPDYVLFRTAYYEYDYWGQGTQVTVSS", "polyreactivity (PSR sort gate)": "low polyreactivity"}
{"sequence": "QVQLVESGGGLVQAGGSLRLSCAASGRIFDRYAMGWYRPAPGKERELVAASTGSGGRTYYADSVKGRFTISRDNAKNTVYLQMNSLKPEDTAVYYCARAFGQRRYYYWGQGTQVTVSS", "polyreactivity (PSR sort gate)": "high polyreactivity"}
{"sequence": "QVQLVESGGGLVQAGGSLRLSCAASGRIFDRYVMGWYRQAPGKERELVAAISSGGSTYYADSVKGRFTISRDNAKNTVYLQMNSLKPEDTAVYYCAADRRSKYDYWGQGTQVTVSS", "polyreactivity (PSR sort gate)": "low polyreactivity"}
{"sequence": "QVQLVESGGGLVQAGGSLRLSCAASGRIFDSYAMGWYRQAPGKERELVAAISFGGDTYYADSVKGRFTISRDNAKNTVYLQMNSLKPEDTAVYYCAKDNPAALFDSWGQGTQVTVSS", "polyreactivity (PSR sort gate)": "low polyreactivity"}
{"sequence": "QVQLVESGGGLVQAGGSLRLSCAASGRIFDTYVMRWYRQAPGKERELVAAISGSGGSTYYADSVKGRFTISRDTAKNTVYLQMNSLKPEDTAVYYCAAVVLGRLLGFRGDYNYWGQGPQVTVSS", "polyreactivity (PSR sort gate)": "high polyreactivity"}
{"sequence": "QVQLVESGGGLVQAGGSLRLSCAASGRIFDVYAMGWYRQAPGKERELVAAITWSGTSTYYADSVKGRFTISRDNAKNTVYLQMNSLKPEDTAVYYCNALSYGRYLNYRGGMDYWGQGTQVTVSS", "polyreactivity (PSR sort gate)": "high polyreactivity"}
{"sequence": "QVQLVESGGGLVQAGGSLRLSCAASGRIFDVYAMGWYRQAPGKERELVATISSSGGATYYADSVKGRFTISRDNAKNTVYLQMNSLKPEDTAVYYCATTYRPTFRRHYNYWGQGTQVTVSS", "polyreactivity (PSR sort gate)": "low polyreactivity"}
{"sequence": "QVQLVESGGGLVQAGGSLRLSCAASGRIFDVYAMGWYRQSPGKERELVAAISWSGSSTYYADSVKGRFTISRDTAKNTVYFQMNSLKPEDTAVYYCAADYPKTYTSKFNYWGQGTQVTVSS", "polyreactivity (PSR sort gate)": "high polyreactivity"}
{"sequence": "QVQLVESGGGLVQAGGSLRLSCAASGRIFDWYAMGWYRQAPGKERELVATISWSGGSTYYADSVKGRFTISRDNAKNTVYLQMNSLKPEDTAVYYCAADDYWRLYTWKFDYWGQGTQVTVSS", "polyreactivity (PSR sort gate)": "high polyreactivity"}
{"sequence": "QVQLVESGGGLVQAGGSLRLSCAASGRIFDYYAMGWYRQAPGKERELVAAINSGGSTYYADSVKGRFTISRDNAKNTVYLQMNSLKPEDTAVYYCAAKSFAPIVDYWGQGTQVTVSS", "polyreactivity (PSR sort gate)": "high polyreactivity"}
{"sequence": "QVQLVESGGGLVQAGGSLRLSCAASGRIFDYYAMGWYRQAPGKERELVAAITRGGSTYYADSVKGRFTISRDNAKNTVYLQLNSLNPVDTEVYYCAASIGIRFIKYDYWGQGAQVTVSS", "polyreactivity (PSR sort gate)": "high polyreactivity"}
{"sequence": "QVQLVESGGGLVQAGGSLRLSCAASGRIFDYYAMGWYRQAPGKERELVAAITSSGGSTYYADSVKGRFTISRDNAKNTVYLQMNSLKPEDTAVYYCAAGRKVQSRRYGYWGQGTQVTVSS", "polyreactivity (PSR sort gate)": "high polyreactivity"}
{"sequence": "QVQLVESGGGLVQAGGSLRLSCAASGRIFDYYAMGWYRQAPGKERELVAVISGSGGTYYADSVKGRFTISRDNAKNTVYLQMNSLKPEDTAVYYCNAAVTSYPGYEYWGQGTQVTVSS", "polyreactivity (PSR sort gate)": "low polyreactivity"}
{"sequence": "QVQLVESGGGLVQAGGSLRLSCAASGRIFDYYAMGWYRQAPGNERELVAAINSGGSTYYADSVKGRFTISRDNAKNTVSLQMNSLKPEDTAVYYCNALRKSLRGGDYWGQGTQVTVSS", "polyreactivity (PSR sort gate)": "high polyreactivity"}
{"sequence": "QVQLVESGGGLVQAGGSLRLSCAASGRIFDYYTMGWSRQAPGKVRELVAAISSGGRTYYADSVKGRFTISRDNAKNTVYLQMNSLKPEDTAVYYCNALDTRHTYTYTGGKRFPYDHWGQGTQVTVSS", "polyreactivity (PSR sort gate)": "low polyreactivity"}
{"sequence": "QVQLVESGGGLVQAGGSLRLSCAASGRIFDYYYMGWYRQAPGKERELVAAISNGGSTYYADSVKGRFTISRDNAKNTVYLQMNSLKPEDTAVYYGAAVISFSGYDYYYWGQGTQVTVSS", "polyreactivity (PSR sort gate)": "high polyreactivity"}
{"sequence": "QVQLVESGGGLVQAGGSLRLSCAASGRIFEDYAMGWYRQAAGKERELVARISSGDSTNYADSVKGRFTISRDNAKNTVYLQMNSLKPVVTAVYYCAAEGGVQEFDYWGQGTQVTVSS", "polyreactivity (PSR sort gate)": "low polyreactivity"}
{"sequence": "QVQLVESGGGLVQAGGSLRLSCAASGRIFEINARGWYRQAPGKERELVAAITRSGGSTYYADSVKGRFTISRDNAKNTVYFQMNSLTPEDTAVYYCAARGRYWYSRYYSWGQGTQVTVSS", "polyreactivity (PSR sort gate)": "high polyreactivity"}
{"sequence": "QVQLVESGGGLVQAGGSLRLSCAASGRIFEPYAMGWYRQAPGKERELVAAITSGGSTDYADSVKGRFTISRDNAKNTVYLQMNSLKPEDTAVYYCAAETVWRLDYWGQGTQVTVSS", "polyreactivity (PSR sort gate)": "low polyreactivity"}
